Non-standard residues stand in square brackets, D forms with d. Y‑mPEG ~40 kDa = Y-mPEG amine, ~40 kDa, coupled at C-terminal carboxyl; Hyp = O=C(O)[C@@H]1C[C@@H](O)CN1; Chg = N[C@H](C(=O)O)C1CCCCC1
Key:
complexed PSA = complexed PSA (Homo sapiens, UniProt P07288); assay: In vitro activation of agent by complexed (inactive) PSA, kinetic fluorescence reading; type: biochemical; conditions: 0.5 μM agent, optimized buffer pH 7.5
Method: (§1) Data in FIG. 1 depict activation of the prostate specific antigen activatable agents (compound A10).
(§2) Kinetic fluorescence readings were performed in a Gemini fluorescence plate reader at different times after adding the enzyme.
(§3) In this experiment, fluorescence is only associated with the test agents (compound A10) in the prescence of active PSA described herein.

[1] = system: LNCaP tumors (PSA+) and PC3 (PSA−) tumors; assay: In vivo specificity imaging, LNCaP (PSA+) versus PC3 (PSA−) tumors, FMT2500; conditions: male Nu/Nu mice, 2 nmoles intravenously, imaged 24 hours later
Method: FIG. 2B is a histogram comparing fluorescence between prostate cancer expressing (PSA positive) and control (PSA negative) mice injected with the prostate specific antigen activatable agent (compound A10) and imaged tomographically.
Imaging studies were performed in LNCaP tumors (PSA+) and PC3 (PSA−) tumors tumor-bearing male Nu/Nu mice. The mice were injected intravenously with 2 nmoles of compound A10 and imaged 24 hours later on the FMT2500 (PerkinElmer Inc., Waltham, Mass.). Tumor fluorescence from positive and control mice was quantified and plotted.

active PSA = active PSA (Homo sapiens, UniProt P07288); assay: In vitro activation (cleavage) of agent by enzymatically active PSA, kinetic fluorescence reading; type: biochemical; conditions: 0.5 μM agent, 0.1 μM activated enzyme, TCNB buffer pH 7.5
Sequence of active PSA (P07288 25-261): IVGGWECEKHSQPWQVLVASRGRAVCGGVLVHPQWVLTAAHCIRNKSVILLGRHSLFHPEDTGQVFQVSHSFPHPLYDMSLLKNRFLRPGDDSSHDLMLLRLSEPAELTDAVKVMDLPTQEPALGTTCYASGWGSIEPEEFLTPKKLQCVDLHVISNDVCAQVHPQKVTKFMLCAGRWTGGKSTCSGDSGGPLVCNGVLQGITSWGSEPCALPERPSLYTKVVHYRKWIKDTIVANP
Method: as §1, §2, §3

[2] = system: human prostate PSA+ LNCaP tumor; assay: In vivo imaging of prostate cancer, FMT2500 reflectance and tomography, IVIS Spectrum; conditions: male Nu/Nu mice, 2 nmoles intravenously, imaged 6 hours later
Method: FIG. 2A depicts epi-fluorescent reflectance and tomographic images for sites of active PSA detected in prostate cancer expressing mice six hours post-injection using a prostate specific antigen activatable agent (compound A10).
As depicted in FIG. 2A, imaging studies were performed in human prostate PSA^+ LNCaP tumor-bearing male Nu/Nu mice. The mice were injected intravenously with 2 nmoles of test agent (compound A10) and were imaged 6 hours later on the FMT2500 (PerkinElmer Inc., Waltham, Mass.) (FMT 2D for epifluorescence, FMT 3D for tomography) in reflectance and tomographic modes, and on the IVIS Spectrum (PerkinElmer Inc., Waltham, Mass.).

Sequence of complexed PSA (P07288 25-261): as above
Sequence of complexed PSA (P01011 24-423 partner): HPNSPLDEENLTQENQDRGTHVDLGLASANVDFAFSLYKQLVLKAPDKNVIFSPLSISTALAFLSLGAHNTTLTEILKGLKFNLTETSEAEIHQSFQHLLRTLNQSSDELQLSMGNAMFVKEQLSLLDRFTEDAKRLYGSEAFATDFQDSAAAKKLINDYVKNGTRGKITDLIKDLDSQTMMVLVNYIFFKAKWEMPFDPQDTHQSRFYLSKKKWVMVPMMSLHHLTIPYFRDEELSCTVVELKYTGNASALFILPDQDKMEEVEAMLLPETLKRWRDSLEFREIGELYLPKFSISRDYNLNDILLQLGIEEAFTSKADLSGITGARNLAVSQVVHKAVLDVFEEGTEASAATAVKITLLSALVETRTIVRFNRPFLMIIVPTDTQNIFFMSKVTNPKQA

A10 (Ac-K[Hyp]SS[Chg]QSSK-{Y‑mPEG ~40 kDa}; also: conjugated with NHS ester of fluorophore F8, sites not given here) [Compound A10]
activation (fluorescence) in the presence of complexed PSA (complexed PSA): not complexed PSA
specificity of tumor fluorescence for PSA positive over PSA negative tumors [1]: specificity the prostate specific antigen activatable agents have for tumors containing enzymatically active PSA over PSA negative tumors in vivo
activation (fluorescence) in the presence of active PSA (active PSA): activated in the presence of active PSA
detection of sites of enzymatically active PSA in vivo [2]: Sites of active PSA are detected in the same locations for both reflectance and tomographic imaging

Reference: patent US9371362B2, “Prostate specific antigen agents and methods of using same for prostate cancer imaging” (VisEn Medical, Inc., priority 2012, dated 2016)
